Reference: US6111089, “Trophinin, trophinin-assisting proteins and methods to inhibit implantation” (The Burnham Institute, dated 2000)

B1: human trophinin (other)
chain: MDIDCLTREELGDDSQAWSRFSFEIEARAQENADASTNVNFSRGASTRAGFSDRASISFNGAPSSSGGFSGGPGITFGVAPSTSASFSNTASISFGGTLSTSSSFSSAASISFGCAHSTSTSFSSEASISFGGMPCTSASFSGGVSSSFSGPLSTSATFSGGASSGFGGTLSTTAGFSGVLSTSTSFGSAPTTSTVFSSALSTSTGFGGILSTSVCFGGSPSSSGSFGGTLSTSICFGGSPCTSTGFGGTLSTSVSFGGSSSTSANFGGTLSTSICFDGSPSTGAGFGGALNTSASFGSVLNTSTGFGGAMSTSADFGGTLSTSVCFGGSPGTSVSFGSALNTNAGYGGAVSTNTDFGGTLSTSVCFGGSPSTSAGFGGALNTNASFGCAVSTSASFSGAVSTSACFSGAPITNPGFGGAFSTSAGFGGALSTAADFGGTPSNSIGFGAAPSTSVSFGGAHGTSLCFGGAPSTSLCFGSASNTNLCFGGPPSTSACFSGATSPSFCDGPSTSTGFSFGNGLSTNAGFGGGLNTSAGFGGGLGTSAGFSGGLSTSSGFDGGLGTSAGFGGGPGTSTGFGGGLGTSAGFSGGLGTSAGFGGGLVTSDGFGGGLGTNASFGSTLGTSAGFSGGLSTSDGFGSRPNASFDRGLSTIIGFGSGSNTSTGFTGEPSTSTGFSSGPSSIVGFSGGPSTGVGFCSGPSTSGFSGGPSTGAGFGGGPNTGAGFGGGPSTSAGFGSGAASLGACGFSYG
B2: biotinylated GST-N-terminal trophinin (other)
chain: {GST}-MDIDCLTREELGDDSQAWSRFSFEIEARAQENADASTNVNFSRGASTRAGFSDRASISFNGAPSSS
modifications: also: labeled with biotin succinamide (site not given here)

Tests used:
biotinylated GST = biotinylated GST (Schistosoma japonicum (Blood fluke), UniProt P08515 = GST, labeled with biotin succinamide); assay: staining of unpermeabilized HT-H, SNG-M and trophinin/tastin-transfected COS-1 cells, avidin-FITC
Method: (§1) To identify hydrophilic extracellular domains of human trophinin that mediate cell adhesion, individual domains were expressed and evaluated for specific binding to trophinin expressing cells. The trophinin extracellular domain fusion proteins GST551, GST552 and GST553, the GST-N-terminal trophinin domain (residue 1 to 66) and GST were labeled with biotin succinamide (Sigma). SNG-M, HT-H and COS-1 cells transfected with a mixture of human trophinin and tastin cDNA were grown on coverslips and processed for cell staining with the biotinylated proteins essentially as was described for the antibodies to the external domains of trophinin, except that avidin-FITC (Cappel) was used in place of a FITC-secondary antibody.

human trophinin = target: B1; assay: as above
Method: as §1

| Binder | binding result (biotinylated GST) | binding result (human trophinin) |
| --- | --- | --- |
| B1 | no binding | – |
| B2 | – | no binding |
